In PMC10786891, “Massively parallel profiling of RNA-targeting CRISPR-Cas13d”:

T1: EsCas13d, nuclease-dead (Eubacterium siraeum, UniProt B0MS50, R295A;H300A;R849A;H854A)
T1 sequence: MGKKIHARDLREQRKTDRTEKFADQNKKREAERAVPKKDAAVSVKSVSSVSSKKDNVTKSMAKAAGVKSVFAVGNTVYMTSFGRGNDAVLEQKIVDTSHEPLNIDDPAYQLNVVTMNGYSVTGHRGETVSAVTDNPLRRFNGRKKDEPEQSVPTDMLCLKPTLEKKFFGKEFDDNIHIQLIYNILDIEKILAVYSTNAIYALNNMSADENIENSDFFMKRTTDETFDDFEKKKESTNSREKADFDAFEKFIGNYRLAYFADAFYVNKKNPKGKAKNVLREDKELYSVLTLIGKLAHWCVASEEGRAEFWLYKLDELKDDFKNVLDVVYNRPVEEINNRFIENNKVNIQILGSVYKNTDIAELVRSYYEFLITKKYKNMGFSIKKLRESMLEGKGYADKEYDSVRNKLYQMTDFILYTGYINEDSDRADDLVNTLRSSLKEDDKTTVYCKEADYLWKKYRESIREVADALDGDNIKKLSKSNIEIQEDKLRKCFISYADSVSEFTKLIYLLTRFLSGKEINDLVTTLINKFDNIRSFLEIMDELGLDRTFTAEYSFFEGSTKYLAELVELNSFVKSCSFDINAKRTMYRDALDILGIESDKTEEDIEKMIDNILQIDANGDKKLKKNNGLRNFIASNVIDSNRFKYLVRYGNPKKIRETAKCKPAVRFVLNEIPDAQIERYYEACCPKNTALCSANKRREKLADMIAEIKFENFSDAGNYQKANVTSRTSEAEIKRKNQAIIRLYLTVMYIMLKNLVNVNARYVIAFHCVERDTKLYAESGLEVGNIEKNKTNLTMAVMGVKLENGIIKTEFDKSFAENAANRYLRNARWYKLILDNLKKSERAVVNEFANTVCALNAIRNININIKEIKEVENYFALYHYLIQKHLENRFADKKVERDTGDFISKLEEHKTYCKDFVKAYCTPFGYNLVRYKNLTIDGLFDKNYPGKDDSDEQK

B1: target 3 G4A,U8C (mixed)
RNA 1: CACCCGUGCAAAAUUGCAGGGGUCUAAAACGACCUGAAUAUUUCAGAUCAAA
RNA 2: GGGAAUGGAUCCACAUCUACGAAUUCGUUUUUGAUCUGAAAUACUCAAGUCUGCAGAUCGGAAGAGCACACGU
B2: target 3 C6U,U10C (mixed)
RNA 1: CACCCGUGCAAAAUUGCAGGGGUCUAAAACGACCUGAAUAUUUCAGAUCAAA
RNA 2: GGGAAUGGAUCCACAUCUACGAAUUCGUUUUUGAUCUGAAACAUUUAGGUCUGCAGAUCGGAAGAGCACACGU
B3: target 3 A5G,C6U (mixed)
RNA 1: CACCCGUGCAAAAUUGCAGGGGUCUAAAACGACCUGAAUAUUUCAGAUCAAA
RNA 2: GGGAAUGGAUCCACAUCUACGAAUUCGUUUUUGAUCUGAAAUAUUUGGGUCUGCAGAUCGGAAGAGCACACGU
B4: target 3 insA 3' of 22,insA 3' of 7 (mixed)
RNA 1: CACCCGUGCAAAAUUGCAGGGGUCUAAAACGACCUGAAUAUUUCAGAUCAAA
RNA 2: GGGAAUGGAUCCACAUCUACGAAUUCGUUUAUUGAUCUGAAAUAUUACAGGUCUGCAGAUCGGAAGAGCACACGU
B5: target 3 insA 3' of 2,insA 3' of 1 (mixed)
RNA 1: CACCCGUGCAAAAUUGCAGGGGUCUAAAACGACCUGAAUAUUUCAGAUCAAA
RNA 2: GGGAAUGGAUCCACAUCUACGAAUUCGUUUUUGAUCUGAAAUAUUCAGGUACAUGCAGAUCGGAAGAGCACACGU
B6: target 3 U7A,A13G (mixed)
RNA 1: CACCCGUGCAAAAUUGCAGGGGUCUAAAACGACCUGAAUAUUUCAGAUCAAA
RNA 2: GGGAAUGGAUCCACAUCUACGAAUUCGUUUUUGAUCUGGAAUAUACAGGUCUGCAGAUCGGAAGAGCACACGU
B7: target 3 insA 3' of 6,insU 3' of 5 (mixed)
RNA 1: CACCCGUGCAAAAUUGCAGGGGUCUAAAACGACCUGAAUAUUUCAGAUCAAA
RNA 2: GGGAAUGGAUCCACAUCUACGAAUUCGUUUUUGAUCUGAAAUAUUCAAUGGUCUGCAGAUCGGAAGAGCACACGU
B8: target 3 insG 3' of 8,insC 3' of 8 (mixed)
RNA 1: CACCCGUGCAAAAUUGCAGGGGUCUAAAACGACCUGAAUAUUUCAGAUCAAA
RNA 2: GGGAAUGGAUCCACAUCUACGAAUUCGUUUUUGAUCUGAAAUAUGCUCAGGUCUGCAGAUCGGAAGAGCACACGU
B9: target 3 insA 3' of 3,insG 3' of 2 (mixed)
RNA 1: CACCCGUGCAAAAUUGCAGGGGUCUAAAACGACCUGAAUAUUUCAGAUCAAA
RNA 2: GGGAAUGGAUCCACAUCUACGAAUUCGUUUUUGAUCUGAAAUAUUCAGGAUGCUGCAGAUCGGAAGAGCACACGU
B10: target 3 insU 3' of 5,insA 3' of 3 (mixed)
RNA 1: CACCCGUGCAAAAUUGCAGGGGUCUAAAACGACCUGAAUAUUUCAGAUCAAA
RNA 2: GGGAAUGGAUCCACAUCUACGAAUUCGUUUUUGAUCUGAAAUAUUCAUGGAUCUGCAGAUCGGAAGAGCACACGU
B11: target 3 insA 3' of 8,insC 3' of 8 (mixed)
RNA 1: CACCCGUGCAAAAUUGCAGGGGUCUAAAACGACCUGAAUAUUUCAGAUCAAA
RNA 2: GGGAAUGGAUCCACAUCUACGAAUUCGUUUUUGAUCUGAAAUAUACUCAGGUCUGCAGAUCGGAAGAGCACACGU
B12: target 3 insG 3' of 8,insC 3' of 3 (mixed)
RNA 1: CACCCGUGCAAAAUUGCAGGGGUCUAAAACGACCUGAAUAUUUCAGAUCAAA
RNA 2: GGGAAUGGAUCCACAUCUACGAAUUCGUUUUUGAUCUGAAAUAUGUCAGGCUCUGCAGAUCGGAAGAGCACACGU
B13: target 3 A5G,A18G (mixed)
RNA 1: CACCCGUGCAAAAUUGCAGGGGUCUAAAACGACCUGAAUAUUUCAGAUCAAA
RNA 2: GGGAAUGGAUCCACAUCUACGAAUUCGUUUUUGGUCUGAAAUAUUCGGGUCUGCAGAUCGGAAGAGCACACGU
B14: target 3 G3U,A5G (mixed)
RNA 1: CACCCGUGCAAAAUUGCAGGGGUCUAAAACGACCUGAAUAUUUCAGAUCAAA
RNA 2: GGGAAUGGAUCCACAUCUACGAAUUCGUUUUUGAUCUGAAAUAUUCGGUUCUGCAGAUCGGAAGAGCACACGU
B15: target 3 insA 3' of 21,insA 3' of 6 (mixed)
RNA 1: CACCCGUGCAAAAUUGCAGGGGUCUAAAACGACCUGAAUAUUUCAGAUCAAA
RNA 2: GGGAAUGGAUCCACAUCUACGAAUUCGUUUUAUGAUCUGAAAUAUUCAAGGUCUGCAGAUCGGAAGAGCACACGU
B16: target 3 insC 3' of 22,insC 3' of 3 (mixed)
RNA 1: CACCCGUGCAAAAUUGCAGGGGUCUAAAACGACCUGAAUAUUUCAGAUCAAA
RNA 2: GGGAAUGGAUCCACAUCUACGAAUUCGUUUCUUGAUCUGAAAUAUUCAGGCUCUGCAGAUCGGAAGAGCACACGU
B17: target 3 insC 3' of 10,insC 3' of 3 (mixed)
RNA 1: CACCCGUGCAAAAUUGCAGGGGUCUAAAACGACCUGAAUAUUUCAGAUCAAA
RNA 2: GGGAAUGGAUCCACAUCUACGAAUUCGUUUUUGAUCUGAAAUCAUUCAGGCUCUGCAGAUCGGAAGAGCACACGU
B18: target 3 A12U,A18G (mixed)
RNA 1: CACCCGUGCAAAAUUGCAGGGGUCUAAAACGACCUGAAUAUUUCAGAUCAAA
RNA 2: GGGAAUGGAUCCACAUCUACGAAUUCGUUUUUGGUCUGAUAUAUUCAGGUCUGCAGAUCGGAAGAGCACACGU
B19: target 3 insG 3' of 11,insC 3' of 3 (mixed)
RNA 1: CACCCGUGCAAAAUUGCAGGGGUCUAAAACGACCUGAAUAUUUCAGAUCAAA
RNA 2: GGGAAUGGAUCCACAUCUACGAAUUCGUUUUUGAUCUGAAAGUAUUCAGGCUCUGCAGAUCGGAAGAGCACACGU
B20: target 3 U2C,A5U (mixed)
RNA 1: CACCCGUGCAAAAUUGCAGGGGUCUAAAACGACCUGAAUAUUUCAGAUCAAA
RNA 2: GGGAAUGGAUCCACAUCUACGAAUUCGUUUUUGAUCUGAAAUAUUCUGGCCUGCAGAUCGGAAGAGCACACGU
B21: target 3 A9G,U22G (mixed)
RNA 1: CACCCGUGCAAAAUUGCAGGGGUCUAAAACGACCUGAAUAUUUCAGAUCAAA
RNA 2: GGGAAUGGAUCCACAUCUACGAAUUCGUUGUUGAUCUGAAAUGUUCAGGUCUGCAGAUCGGAAGAGCACACGU
B22: target 3 insA 3' of 14,insU 3' of 3 (mixed)
RNA 1: CACCCGUGCAAAAUUGCAGGGGUCUAAAACGACCUGAAUAUUUCAGAUCAAA
RNA 2: GGGAAUGGAUCCACAUCUACGAAUUCGUUUUUGAUCUGAAAAUAUUCAGGUUCUGCAGAUCGGAAGAGCACACGU
B23: target 3 G3A,C6A (mixed)
RNA 1: CACCCGUGCAAAAUUGCAGGGGUCUAAAACGACCUGAAUAUUUCAGAUCAAA
RNA 2: GGGAAUGGAUCCACAUCUACGAAUUCGUUUUUGAUCUGAAAUAUUAAGAUCUGCAGAUCGGAAGAGCACACGU
B24: target 3 insC 3' of 3,insG 3' of 2 (mixed)
RNA 1: CACCCGUGCAAAAUUGCAGGGGUCUAAAACGACCUGAAUAUUUCAGAUCAAA
RNA 2: GGGAAUGGAUCCACAUCUACGAAUUCGUUUUUGAUCUGAAAUAUUCAGGCUGCUGCAGAUCGGAAGAGCACACGU
B25: target 3 insC 3' of 5,insG 3' of 2 (mixed)
RNA 1: CACCCGUGCAAAAUUGCAGGGGUCUAAAACGACCUGAAUAUUUCAGAUCAAA
RNA 2: GGGAAUGGAUCCACAUCUACGAAUUCGUUUUUGAUCUGAAAUAUUCACGGUGCUGCAGAUCGGAAGAGCACACGU
B26: target 3 A12G,U22G (mixed)
RNA 1: CACCCGUGCAAAAUUGCAGGGGUCUAAAACGACCUGAAUAUUUCAGAUCAAA
RNA 2: GGGAAUGGAUCCACAUCUACGAAUUCGUUGUUGAUCUGAGAUAUUCAGGUCUGCAGAUCGGAAGAGCACACGU
B27: target 1 A9C,U11G (mixed)
RNA 1: CACCCGUGCAAAAAUGCAGGGGUCUAAAACUGAGCGGAUAACCUCUCUAUGG
RNA 2: GGGAAUGGAUCCACAUCUACGAAUUCGUACCAUAGAGAGGGUCUCCGCUCACCGAGAUCGGAAGAGCACACGU
B28: target 1 U3G,C6U (mixed)
RNA 1: CACCCGUGCAAAAAUGCAGGGGUCUAAAACUGAGCGGAUAACCUCUCUAUGG
RNA 2: GGGAAUGGAUCCACAUCUACGAAUUCGUACCAUAGAGAGGUUAUCUGCGCACCGAGAUCGGAAGAGCACACGU

Target: T1, EsCas13d, nuclease-dead
Assay: crRNA (strand 1, pre-loaded); Mg2+; 40 mM Tris-HCl pH 7.5, 150 mM NaCl, 6 mM MgCl2, 1 mM DTT, 0.1% Tween-20, 0.2 mg/ml BSA; 25 C; 10 min per concentration, then washed
Conditions: tags: His6-TwinStrep-SUMO cleaved; N-terminal SNAP kept (SNAP-Surface 488); label: 3' end held by stalled T7 RNA polymerase

Binder | Kd
B1 | 52.8 ± 5.6 nM
B2 | 88 ± 11.5 nM
B3 | 11.5 ± 1.3 nM
B4 | 65 ± 21.5 nM
B5 | 34.3 ± 4.25 nM
B6 | 100 ± 50 nM
B7 | 4 ± 0.27 nM
B8 | 58 ± 8.5 nM
B9 | 24.6 ± 3.4 nM
B10 | 6.39 ± 0.52 nM
B11 | 63 ± 10 nM
B12 | 38.8 ± 5.05 nM
B13 | 30.6 ± 4.5 nM
B14 | 25.4 ± 2.4 nM
B15 | 38.4 ± 4.75 nM
B16 | 33 ± 4.5 nM
B17 | ~96 nM
B18 | 97 ± 34 nM
B19 | 76 ± 21.5 nM
B20 | 36.4 ± 3.4 nM
B21 | 69.5 ± 16.5 nM
B22 | 90.5 ± 40.5 nM
B23 | 51.5 ± 5.5 nM
B24 | 10.6 ± 1.25 nM
B25 | 29 ± 2.8 nM
B26 | 86 ± 20 nM
B27 | 44 ± 6 nM
B28 | 4.79 ± 0.35 nM
